Changes are numbered by the printed parent chain. In names and notes the source's numbering stands.

T1: β-catenin–N-cadherin cytoplasmic tail complex (Mus musculus | , UniProt Q02248 1-781; P15116 746-906)
T1 construct: β-catenin, Mus musculus, full length; N-cadherin cytoplasmic tail (Ncad_(cyto)); the methods name no plasmid for the N-cadherin tail; also called β-catenin–Ncad_(cyto); β-cat–Ncad_(cyto); source: β-catenin: E. coli BL21-Gold, purified
T1 sequence (looked up) 1: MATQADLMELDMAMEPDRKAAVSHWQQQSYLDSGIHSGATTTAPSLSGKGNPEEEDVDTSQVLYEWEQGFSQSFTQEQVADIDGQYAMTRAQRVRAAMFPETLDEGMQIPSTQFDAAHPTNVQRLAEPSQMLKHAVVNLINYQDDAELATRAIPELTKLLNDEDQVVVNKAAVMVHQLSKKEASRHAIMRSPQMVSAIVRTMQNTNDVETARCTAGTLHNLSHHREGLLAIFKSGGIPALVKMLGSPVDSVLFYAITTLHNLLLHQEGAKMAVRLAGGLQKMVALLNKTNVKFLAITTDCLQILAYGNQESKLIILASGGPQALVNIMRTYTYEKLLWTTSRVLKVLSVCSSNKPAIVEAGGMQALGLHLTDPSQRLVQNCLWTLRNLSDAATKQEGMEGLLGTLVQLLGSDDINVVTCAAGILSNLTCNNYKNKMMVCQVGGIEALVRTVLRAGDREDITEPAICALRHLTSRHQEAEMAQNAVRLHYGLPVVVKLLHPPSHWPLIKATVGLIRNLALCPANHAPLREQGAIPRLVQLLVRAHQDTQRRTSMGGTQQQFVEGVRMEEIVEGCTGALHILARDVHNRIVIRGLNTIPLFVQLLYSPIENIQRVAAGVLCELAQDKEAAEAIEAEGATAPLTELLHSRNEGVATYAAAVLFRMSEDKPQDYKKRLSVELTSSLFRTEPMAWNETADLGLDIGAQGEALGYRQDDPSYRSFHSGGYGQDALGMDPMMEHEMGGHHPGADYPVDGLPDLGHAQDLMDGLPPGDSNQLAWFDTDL
T1 sequence (looked up) 2: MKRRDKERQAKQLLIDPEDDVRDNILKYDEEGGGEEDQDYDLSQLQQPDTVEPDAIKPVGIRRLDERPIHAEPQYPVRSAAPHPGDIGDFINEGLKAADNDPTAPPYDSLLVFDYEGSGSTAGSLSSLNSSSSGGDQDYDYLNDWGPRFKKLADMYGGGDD

T2: vinculin D1 (Mus musculus, UniProt Q64727)
T2 chain: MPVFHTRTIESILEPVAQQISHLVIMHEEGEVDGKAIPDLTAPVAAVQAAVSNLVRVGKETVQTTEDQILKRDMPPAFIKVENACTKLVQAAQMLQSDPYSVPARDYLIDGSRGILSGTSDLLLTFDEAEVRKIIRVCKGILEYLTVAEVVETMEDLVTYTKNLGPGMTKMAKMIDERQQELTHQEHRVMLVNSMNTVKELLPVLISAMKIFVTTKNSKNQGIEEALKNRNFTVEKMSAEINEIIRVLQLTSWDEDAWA

B1: αT-catenin V94D N1-N2 (domain or fragment, Mus musculus, UniProt Q65CL1 1-259, looked up)
chain: MSAETPITLNMDTQDLQIQTFTVEKLLEPLIIQVTTLVNCPQNPSNRKKGRSKRARVLLASVEEATWNLLDKGEMIAKEATVLKEELAAALQEDRKESKALKVSAERFTDDPCYLPKREAVVQAARALLAAVTRLLVLADMIDVMCLLQHVSSFQRTFESLKNVSNKSDLQRTYQKLGKELESLDYLAFKRQQDLKSPSQRDEIAGARATLKENSPLLHSICSACLEHSDVASLKASKDTVCEEIQNALDVISNASQGI
notes: αT-catenin N1-N2 (aa 1-259) with V94D, a point mutation linked to arrhythmogenic ventricular cardiomyopathy in humans; also called V94D mutant; source: E. coli BL21-Gold, purified (glutathione-agarose, TEV cleavage, Mono Q or Mono S, S200)
B2: αT-catenin N1-N2 (aa 1–259) (domain or fragment, Mus musculus, UniProt Q65CL1 1-259, looked up)
chain: B1 chain with D94V
notes: αT-catenin, Mus musculus, N1-N2, aa 1-259; in pGEX-TEV; also called αT-catenin WT N1-N2; αT-catenin N1-N2 (1–259); source: E. coli BL21-Gold, purified (glutathione-agarose, TEV cleavage, Mono Q or Mono S, S200)
B3: β-catenin (natural protein, Mus musculus, UniProt Q02248 1-781, looked up)
chain: T1 sequence (looked up) 1
notes: β-catenin, Mus musculus, full length; in pGEX-TEV; source: E. coli BL21-Gold, purified (glutathione-agarose, TEV cleavage, Mono Q or Mono S, S200)
B4: 2I27–αT-catenin M1-M3–2I27 259-667 (protein)
chain: IQNAPAPPEPQAATLGSAFDELENLIVLNPLTVTEEDVRPSLEKRLEAIISGAALLADSSCTRDLHRERIIAECNAIRQALQDLLTEYMSNTGKTERSNTLNTAIVNMSKKTRDLRRQLRKAIIDHISDSFLDTTVPLLVLIEAAKNGRVKEIKDYAAIFHEHTGRLVEVANLACSMSTNEDGIKIVRIAANHLETLCPQIINAALALASRPKSQVVKNTMEMYKRTWEHYIHVLTEAVDDITSIDDFLAVSESHILEDVNKCIIALRDQDADNLDRAAGAIRGRAARVAHIVAGEMDSYEPGAYTEGVMRNVNFLTSTVIPEFVTQVNVALDALSKNSLTALDDNQFVDISKKIYDTIHDIRCSVMMIRTPEELEDVSDLEDDHEVRSHTSIQTEGKTDRAKMTQLPE
modifications: 2I27 fusion at both ends
B5: αT-catenin head region (aa 1–659) (domain or fragment, Mus musculus, UniProt Q65CL1 1-659, looked up)
chain: MSAETPITLNMDTQDLQIQTFTVEKLLEPLIIQVTTLVNCPQNPSNRKKGRSKRARVLLASVEEATWNLLDKGEMIAKEATVLKEELAAALQEVRKESKALKVSAERFTDDPCYLPKREAVVQAARALLAAVTRLLVLADMIDVMCLLQHVSSFQRTFESLKNVSNKSDLQRTYQKLGKELESLDYLAFKRQQDLKSPSQRDEIAGARATLKENSPLLHSICSACLEHSDVASLKASKDTVCEEIQNALDVISNASQGIQNAPAPPEPQAATLGSAFDELENLIVLNPLTVTEEDVRPSLEKRLEAIISGAALLADSSCTRDLHRERIIAECNAIRQALQDLLTEYMSNTGKTERSNTLNTAIVNMSKKTRDLRRQLRKAIIDHISDSFLDTTVPLLVLIEAAKNGRVKEIKDYAAIFHEHTGRLVEVANLACSMSTNEDGIKIVRIAANHLETLCPQIINAALALASRPKSQVVKNTMEMYKRTWEHYIHVLTEAVDDITSIDDFLAVSESHILEDVNKCIIALRDQDADNLDRAAGAIRGRAARVAHIVAGEMDSYEPGAYTEGVMRNVNFLTSTVIPEFVTQVNVALDALSKNSLTALDDNQFVDISKKIYDTIHDIRCSVMMIRTPEELEDVSDLEDDHEVRSHTSIQTEGKTDR
notes: αT-catenin, Mus musculus, head region (N- and M-domains), aa 1-659; in pGEX-TEV; also called αT-catenin head (1–659); αT-catenin N1-M3 (aa 1–659); source: E. coli BL21-Gold, purified (glutathione-agarose, TEV cleavage, Mono Q or Mono S, S200)

Series [1] deals with the molecule itself. Briefly: SEC; analytical SEC of 30 μM protein. (In general: Size exclusion chromatography separates by hydrodynamic size, large species first.)
Series [2] has as its target T1, β-catenin–N-cadherin cytoplasmic tail …. Briefly: ITC; β-catenin (110-150 μM) or β-catenin–Ncad_(cyto) complex (103-158 μM) injected into αT-catenin fragment in the cell; 25 °C; 20 mM Hepes pH 8.0, 150 mM NaCl, 1 mM TCEP. The conditions noted are these: both partners purified. A general note: Isothermal titration calorimetry measures the heat released or taken up as one component is titrated into another.

Series [3] has as its target B5. The series is described as above. As to conditions: both partners purified.
The next series deals with T2, vinculin D1. Briefly: ITC.
The series “β-catenin” concerns the target B3. Briefly: ITC; β-catenin (110-150 μM) or β-catenin–Ncad_(cyto) complex (103-158 μM) injected into αT-catenin fragment in the cell; 25 °C; 20 mM Hepes pH 8.0, 150 mM NaCl, 1 mM TCEP. The conditions noted are these: both partners purified.

As usually defined, the stoichiometry N is a count of units in the complex or per binding partner. In the case of B1, in series [1], the “stoichiometry N” value came out at 2.
As usually defined, the Kd is the equilibrium constant for the complex coming apart. The low end stands for higher affinity, the high end for lower affinity. Molecule B2 had a Kd in series [2] of 6.9 ± 12 nM.
For the molecule B3, the dH in series [3] is -14.6 ± 2.1 kcal/mol.
On to B4, for which, in the series with vinculin D1, the Kd was ~250 nM.
Regarding B5, the Kd with β-catenin was determined as 264 ± 109 nM; in series [2], 5.6 ± 0.6 nM.

The values are drawn from paper PMC8091058, “Distinct intramolecular interactions regulate autoinhibition of vinculin binding in αT-catenin and αE-catenin” (The Journal of Biological Chemistry, 2021).
